Test system: Escherichia coli TOP10
Assay: shrunken log2 fold change of peptide-encoding DNA abundance (4.5 h post-induction vs induction); higher = less antimicrobial activity (less host growth inhibition)
Settings: time post-induction: 4.5 h; library: site-saturation at positions 5, 18, 19, 20
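Also: peptides expressed intracellularly from a pBAD plasmid library in pooled LB shake-flask culture, induced with 0.3% L-arabinose, DNA abundance read by NGS, three biological replicates, DESeq2 with apeglm shrinkage.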

Sequence	shrunken log2 fold change
RRIRSRPPRLPRPRPRPSQWPRP	-0.176
RRIRLRPPRLPRPRPRPWNCPRP	-0.493
RRIRERPPRLPRPRPRPEEVPRP	-0.00101
RRIRQRPPRLPRPRPRPCHKPRP	0.0524
RRIRIRPPRLPRPRPRPYENPRP	-0.255
RRIRNRPPRLPRPRPRPTVFPRP	0.0462
RRIRGRPPRLPRPRPRPCQAPRP	-0.0272
RRIRLRPPRLPRPRPRPPTQPRP	0.376
RRIRHRPPRLPRPRPRPLVLPRP	-0.0931
RRIRNRPPRLPRPRPRPDTNPRP	-0.141
RRIRERPPRLPRPRPRPRLPPRP	0.35
RRIRFRPPRLPRPRPRPWYMPRP	-0.991
RRIRSRPPRLPRPRPRPYPAPRP	-0.559
RRIRCRPPRLPRPRPRPPMLPRP	0.0982
RRIRHRPPRLPRPRPRPYRKPRP	-1.23
RRIRKRPPRLPRPRPRPYWTPRP	-0.26
RRIRNRPPRLPRPRPRPHRMPRP	-0.0233
RRIRERPPRLPRPRPRPENPPRP	0.142
RRIRYRPPRLPRPRPRPDGHPRP	-0.024
RRIRCRPPRLPRPRPRPRSGPRP	0.694
RRIRDRPPRLPRPRPRPTATPRP	2.57
RRIRLRPPRLPRPRPRPHIGPRP	-0.0255

Sequence	shrunken log2 fold change
RRIRVRPPRLPRPRPRPFTPPRP	-0.412
RRIRLRPPRLPRPRPRPLYDPRP	-0.924
RRIRDRPPRLPRPRPRPWGFPRP	0.13
RRIRERPPRLPRPRPRPNLSPRP	-0.15
RRIRDRPPRLPRPRPRPKGMPRP	-0.00453
RRIRHRPPRLPRPRPRPPQVPRP	-0.0255
RRIRTRPPRLPRPRPRPDVHPRP	1.16
RRIRARPPRLPRPRPRPDAEPRP	1.63
RRIRNRPPRLPRPRPRPDSCPRP	-0.00192
RRIRIRPPRLPRPRPRPMNSPRP	-0.191
RRIRRRPPRLPRPRPRPRNGPRP	0.144
RRIRFRPPRLPRPRPRPNIVPRP	-0.199
RRIRKRPPRLPRPRPRPWNGPRP	-0.0782
RRIRPRPPRLPRPRPRPTWVPRP	0.0694
RRIRFRPPRLPRPRPRPKKWPRP	0.187
RRIRTRPPRLPRPRPRPPYYPRP	-0.535
RRIRNRPPRLPRPRPRPGCAPRP	0.426
RRIRLRPPRLPRPRPRPTKGPRP	0.226
RRIRRRPPRLPRPRPRPCTFPRP	-0.262
RRIRHRPPRLPRPRPRPMYQPRP	-0.00419
RRIRDRPPRLPRPRPRPCVGPRP	0.97
RRIRFRPPRLPRPRPRPYLDPRP	-0.26

Sequence	shrunken log2 fold change
RRIRHRPPRLPRPRPRPEFCPRP	-0.0591
RRIRERPPRLPRPRPRPMVAPRP	0.138
RRIRFRPPRLPRPRPRPNEYPRP	-0.16
RRIRERPPRLPRPRPRPQFMPRP	0.0848
RRIRARPPRLPRPRPRPYKPPRP	-0.304
RRIRGRPPRLPRPRPRPHEHPRP	1.13
RRIRARPPRLPRPRPRPFKYPRP	-0.0956
RRIRARPPRLPRPRPRPIQEPRP	0.116
RRIRFRPPRLPRPRPRPQRIPRP	-0.695
RRIRYRPPRLPRPRPRPQKSPRP	-0.208
RRIRFRPPRLPRPRPRPGKCPRP	-0.421
RRIRQRPPRLPRPRPRPQKGPRP	0.011
RRIRRRPPRLPRPRPRPSRTPRP	0.141
RRIRQRPPRLPRPRPRPTVEPRP	0.186
RRIRERPPRLPRPRPRPMSNPRP	-0.16
RRIRSRPPRLPRPRPRPIGWPRP	0.142
RRIRQRPPRLPRPRPRPEIHPRP	-0.0415
RRIRHRPPRLPRPRPRPVPEPRP	0.143
RRIRFRPPRLPRPRPRPCHCPRP	-0.0994
RRIRTRPPRLPRPRPRPYQPPRP	-0.0681
RRIRQRPPRLPRPRPRPTHLPRP	0.205
RRIRRRPPRLPRPRPRPWWEPRP	1.82

Sequence	shrunken log2 fold change
RRIRLRPPRLPRPRPRPHRDPRP	-0.0661
RRIRQRPPRLPRPRPRPTRMPRP	0.185
RRIRLRPPRLPRPRPRPCAHPRP	-0.417
RRIRYRPPRLPRPRPRPFEKPRP	0.021
RRIRSRPPRLPRPRPRPIAKPRP	-0.0775
RRIRKRPPRLPRPRPRPITNPRP	0.133
RRIRERPPRLPRPRPRPTWLPRP	0.289
RRIRMRPPRLPRPRPRPQRMPRP	0.583
RRIRCRPPRLPRPRPRPPHMPRP	1.56
RRIRNRPPRLPRPRPRPRFRPRP	0.0503
RRIRMRPPRLPRPRPRPDWGPRP	0.0473
RRIRMRPPRLPRPRPRPKEVPRP	0.00253
RRIRTRPPRLPRPRPRPPVNPRP	0.0698
RRIRSRPPRLPRPRPRPRMSPRP	0.0167
RRIRSRPPRLPRPRPRPEDIPRP	-0.0081
RRIRVRPPRLPRPRPRPICYPRP	0.19
RRIRYRPPRLPRPRPRPVMYPRP	-0.134
RRIRERPPRLPRPRPRPYYAPRP	-0.72
RRIRGRPPRLPRPRPRPEWKPRP	1.3
RRIRKRPPRLPRPRPRPITDPRP	-0.128
RRIRKRPPRLPRPRPRPKTGPRP	0.821
RRIRIRPPRLPRPRPRPPPAPRP	0.543

Sequence	shrunken log2 fold change
RRIRTRPPRLPRPRPRPGMWPRP	0.158
RRIRDRPPRLPRPRPRPACGPRP	0.684
RRIRWRPPRLPRPRPRPVCWPRP	0.758
RRIRIRPPRLPRPRPRPTHRPRP	-0.322
RRIRARPPRLPRPRPRPIQVPRP	-0.215
RRIRNRPPRLPRPRPRPDMYPRP	-0.00473
RRIRVRPPRLPRPRPRPIEQPRP	-0.14
RRIRRRPPRLPRPRPRPCIHPRP	-0.402
RRIRGRPPRLPRPRPRPSCIPRP	0.423
RRIRQRPPRLPRPRPRPVNMPRP	0.0206
RRIRLRPPRLPRPRPRPQFIPRP	-0.433
RRIRCRPPRLPRPRPRPFHLPRP	-1.11
RRIRDRPPRLPRPRPRPDLHPRP	-0.0715
RRIRDRPPRLPRPRPRPAKMPRP	-0.156
RRIRHRPPRLPRPRPRPFVDPRP	0.268
RRIRGRPPRLPRPRPRPNKIPRP	0.214
RRIRYRPPRLPRPRPRPCSVPRP	-1.08
RRIRERPPRLPRPRPRPVTLPRP	-0.289
RRIRGRPPRLPRPRPRPLYAPRP	0.64
RRIRFRPPRLPRPRPRPYPVPRP	-0.115
RRIRARPPRLPRPRPRPPKPPRP	0.689
